This assay addresses CPTL derived from para rubber tree (Hevea brasiliensis) (Hevea brasiliensis).
With “CPT1 derived from para rubber tree (Hevea brasiliensis) (enzyme)”, the Radioactivity (isoprene polymerization activity, 14C-IPP incorporation, proteoliposome) came out at 290 dpm.
On to “cis-prenyltransferase (CPT) 6 derived from para rubber tree (Hevea brasiliensis) (enzyme)”, for which the Radioactivity (isoprene polymerization activity, 14C-IPP incorporation, proteoliposome) was found to be 7660 dpm.
To “cis-prenyltransferase (CPT) 7 derived from para rubber tree (Hevea brasiliensis) (enzyme)” belongs 5040 dpm.

These data come from patent US20230065493A1.
